Experimental data taken from patent US20190127438A1 (AFFIRIS, published 2019).

B1: recombinant wild type FceRIa (extracellular region of the alpha chain of the human high-affinity IgE receptor, spacer, 6His) (receptor)
chain: PDGVLAVPQKPKVSLNPPWNRIFKGENVTLTCNGNNFFEVSSTKWFHNGSLSEETNSSLNIVNAKFEDSGEYKCQHQQVNESEPVYLEVFSDWLLLQASAEVVMEGQPLFLRCHGWRNWDVYKVIYYKDGEALKYWYENHNISITNATVEDSGTYYCTGKVWQLDYESEPLNITVIKAPREKYWLQHHHHHH
notes: Peptide K (VPQKPK...) begins at V26, so the secreted protein may begin at residue 26; also called WT-FceRIa; wt-FceRIa; not shown: spacer between FceRIa and 6His
B2: protease resistant A43-FceRIa (K43 to A43 variant of recombinant human FceRIa) (receptor)
chain (part 1 of 2): PDGVLAVPQKPKVSLNPPWNRIFAGENVTLTCNGNNFFEVSSTKWFHNGSLSEETNSSLNIVNAKFEDSGEYKCQHQQVNESEPVYLEVFSDWLLLQASAEVVMEGQPLFLRCHGWRNWDVYKVIYYKDGEALKYWYENHNISITNATVEDSGTYYCTGKVWQLDYESEPLNITVIKAPREKYWLQ
chain (part 2 of 2): HHHHHH
notes: also called A43 mutant; protease-resistant variant A43-FceRIa; not shown: spacer

Columns and labels:
[1] = target: T1, human IgE (NBS-00911-0-100) (human, UniProt P01854-1 1-428); assay: capture ELISA: adsorber on a capturing antibody, 1 µg/ml IgE, anti IgE-HRPO
T1 construct: Bought reagent; also called soluble IgE
T1 sequence (P01854 other isoform, or with tags, fused parts or gaps): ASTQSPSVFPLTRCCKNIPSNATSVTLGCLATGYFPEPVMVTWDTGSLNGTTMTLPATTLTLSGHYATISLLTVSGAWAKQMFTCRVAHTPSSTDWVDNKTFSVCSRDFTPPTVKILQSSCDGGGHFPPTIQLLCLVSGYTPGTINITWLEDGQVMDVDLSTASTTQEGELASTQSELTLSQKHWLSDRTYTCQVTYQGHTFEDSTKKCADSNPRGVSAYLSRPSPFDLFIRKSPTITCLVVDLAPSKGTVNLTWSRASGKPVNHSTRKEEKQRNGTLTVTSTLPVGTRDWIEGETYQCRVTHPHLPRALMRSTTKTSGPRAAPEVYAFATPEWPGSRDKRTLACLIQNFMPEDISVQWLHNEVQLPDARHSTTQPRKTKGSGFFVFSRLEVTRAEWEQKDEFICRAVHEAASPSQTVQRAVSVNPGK
Experimental: Protease resistant A43-FceRIa adsorber has similar affinity, avidity and specificity to IgE when compared to wild type FceRIa or prior art single chain antibody scFv12 (WO 2012/140214 A1) when comparing IgE binding by capture ELISA. Plates were coated with capturing antibody, after blocking HEK cell-purified recombinant protein derived from ScFv12 and FceRIa transfected cells, coated protein was incubated for 1 hour at RT. 1 μg/ml IgE (NBS-00911-0-100), trapped for 1 h/RT and detected for IgE binding using 1 μg/ml anti IgE-HRPO mAB (Novus Biologicals NBP1-74934) for 1 hour at RT.

[2] = target: T1, human IgE (NBS-00911-0-100); assay: SPR (Biacore 2000, 25 °C), adsorber captured by anti-Tag mAB, IgE 0.5-64 nM as analyte, 1:1 model
Experimental: The surface of a Streptavidine (SA) sensor chip (GE Healthcare Biacore, Cat. Nr. BR-1000-32) was prepared by three injections with 20 μl of 50 mM NaOH following a 200 μl injection of the biotinylated anti-Tag-mAB (Abcam ab10241) diluted to 2 μg/ml in HBS-EP (0.01 M HEPES, 0.15 M NaCl, 3 mM EDTA, 0.005% (v/v) surfactant P20 (pH 7.4) (GE Healthcare Cat. Nr. BR-1001-88) resulting in an immobilization level of ˜2500 RU for capturing on flow cell 4. Free SA-binding sites were saturated by two consecutive 100 μl injections of 1 mM D-Biotin (Sigma #47868). Flow cell 3 was saturated with free D-Biotin and served as reference cell. The capturing level of FceRIa variants and of the ScFv12 required to obtain a maximal response of 100 RU of IgE binding was calculated to be 75 RU and 80 RU, respectively. Therefore FceRIa, A43-FceRIa and scFv12 were diluted in HBS-EP and injected into flow cell 3 and 4 (30 μl/min) until the immobilization level of 90 RU was reached. After a stabilization time of 10 min with injection of running buffer, the final capturing level of 75 and 80 RU respectively were obtained. Finally the individual interactions of FceRIa, A43-FceRIa and scFv12 with IgE (NBS-00911-0-100) diluted in HBS-EP running buffer at 2-fold increasing concentrations (starting concentration, 0.5 nM; maximum concentration, 64 nM) were assessed with an IgE-association phase of 3 min at a flow rate of 30 μl/min. The dissociation phase was investigated by injection of HBS-EP for 30 min at a flow rate of 30 μl/min. The sensor chip surface was regenerated by injecting 15 μl of 10 mM Glycine-HCl pH 1.8 at the same. The dissociation constant (KD-Value), on-rate (ka) and off-rate (kd) were calculated with BIAevaluation 4.1 (GE Healthcare Biacore) using a 1:1 interaction model. All measurements were performed on a Biacore 2000 device at 25° C.

Binder | EC50 [1] | Kd [2] | koff [2] | kon [2]
B1 | 0.0245 µg/mL | 0.473 nM | 0.00052 s⁻¹ | 1.1e+06 M⁻¹ s⁻¹
B2 | 0.0344 µg/mL | 0.379 nM | 0.000492 s⁻¹ | 1.3e+06 M⁻¹ s⁻¹
